What all share (test): fluorescence polarisation; fluorescein-labelled pol β NLS peptide against the concentration of the Impα construct; apparent dissociation constants; as in ref. 56
Holding throughout (settings): both partners purified
In general terms: Fluorescence polarisation rises when a labelled molecule tumbles more slowly, as on binding a larger partner.

For experiment [1], the target named is T1, murine Importin α1 with the Importin β binding domain deleted (mImpα1ΔIBB) (mouse, UniProt P52293 70-529).
For experiment [2], the target named is T2, full-length murine Importin α1 (mImpα1) (mouse, UniProt P52293 1-529).
Experiment [3] deals with human Importin α5, residues 66–512 (hImpα5ΔIBB) (human, UniProt P52294 66-512).
Experiment [4] concerns the target T1, murine Importin α1 with the Importin β …. This is another data set of the same source.
Experiment [5] addresses T2, full-length murine Importin α1 (mImpα1). This is another data set of the same source.

From article PMC5389473 (Nucleic Acids Research, 2016) come the findings set out here.

Ends that are not written are not given here. * marks the point of attachment. FITC = O=C1OC2(c3ccc(O)cc3Oc3cc(O)ccc32)c2ccc(NC(=S)*)cc21

human Importin α5, residues 66–512 (hImpα5ΔIBB), sequence (P52294 66-512, stated change not applied): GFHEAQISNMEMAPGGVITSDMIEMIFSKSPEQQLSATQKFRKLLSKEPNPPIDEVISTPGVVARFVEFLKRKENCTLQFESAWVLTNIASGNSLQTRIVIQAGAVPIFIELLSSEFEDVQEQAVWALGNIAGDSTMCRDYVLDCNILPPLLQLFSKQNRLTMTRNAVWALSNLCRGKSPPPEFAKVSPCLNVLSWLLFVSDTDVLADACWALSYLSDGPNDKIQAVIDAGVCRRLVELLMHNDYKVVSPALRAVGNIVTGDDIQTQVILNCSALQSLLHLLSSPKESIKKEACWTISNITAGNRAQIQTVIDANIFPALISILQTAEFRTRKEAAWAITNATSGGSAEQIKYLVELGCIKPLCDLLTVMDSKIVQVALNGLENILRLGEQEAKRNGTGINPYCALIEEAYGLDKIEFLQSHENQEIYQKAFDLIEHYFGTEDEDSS

B1: fluorescein-labeled pol β NLS peptide SKRKAPQETLNGG-Lys(FITC) (peptide)
peptide: SKRKAPQETLNGGK(FITC)
For the molecule B1, the Kd in experiment [1] came out at 3.6 ± 0.4 µM; in experiment [2], 61.8 ± 1.7 µM; in experiment [3], 0.72 ± 0.03 µM; in experiment [4], 2 µM; in experiment [5] it was 54.3 µM.
